Patent publication CN107383198A (ZONHON BIOPHARMA INST INC, dated 2017)

Columns and labels:
[1] = target: T1, 提取于人血浆的胱抑素C (native human cystatin C, HyTest) (human, UniProt P01034 27-146); assay: indirect ELISA, CysC (HyTest) coated at 1 μg/mL, hybridoma supernatant, HRP goat anti-mouse IgG
T1 construct: mature; also called CysC; 天然CysC蛋白
T1 sequence (looked up): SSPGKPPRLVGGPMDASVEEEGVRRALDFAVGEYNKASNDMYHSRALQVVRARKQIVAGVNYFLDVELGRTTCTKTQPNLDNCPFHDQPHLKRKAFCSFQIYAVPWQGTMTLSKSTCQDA

[2] = target: T1, 提取于人血浆的胱抑素C (native human cystatin C, …); assay: Western blot of native CysC (HyTest) with HRP-labelled scFv

Binder | binding result [1] | binding result [2]
抗体M12 (antibody secreted by hybridoma cell line M12) (antibody, V domains shown, Mouse monoclonal antibody tested as hybridoma culture supernatant and detected with HRP goat anti-mouse IgG) VH: QVQLQQPGSELVRPGTSVKLSCRASGYTFTSYWMHWVKQRHGQGLEWLGNVDPGSGTTNYEENFKTKGTLTVDTSSSTVYMHLSSLTSEDSAVYYCTAGFDYWGQGTTLTVSA VL: DIQMNQSPSSLSASLGDTITITCHASQNINVWLGWFQQKPENIPKLLIYKASTLHTGVPSRFSGSGSGTVFTLTISSPQPEDIATYYCQQGQTYPLTFGAGTKLEIK | binds | 
单链抗体C12 (anti-human cystatin C scFv C12) (scFv, Used HRP-labelled in the Western blot and colloidal-gold-labelled in the test card; also called C12-scFv-(HIS)6; C12-HRP) scFv: QVQLQQPGSELVRPGTSVKLSCRASGYTFTSYWMHWVKQRHGQGLEWLGNVDPGSGTTNYEENFKTKGTLTVDTSSSTVYMHLSSLTSEDSAVYYCTAGFDYWGQGTTLTVSAGGGGSGGGGSGGGGSDIQMNQSPSSLSASLGDTITITCHASQNINVWLGWFQQKPENIPKLLIYKASTLHTGVPSRFSGSGSGTVFTLTISSPQPEDIATYYCQQGQTYPLTFGAGTKLEIK |  | binds
